Test results reported in the supplement of paper PMC7877785.
± gives the uncertainty stated by the source.

Assay: self-splicing fitness, log relative to wild type (ln ratio); higher = more splicing; Tetrahymena group I intron in knt gene, E. coli kanamycin selection, DiMSum; sequences stand for … in CUCUCU…GGAGGGAAAAGUUAUCAGGCAUGCACCUGGUAGCUAGUCUUUAAACCAAUAGAUUGCAUCGGUUUAAAAGGCAAGACCGUCAAAUUGCGGGAAAGGGGUCAACAGCCGUUCAGUACCAAGUCUCAGGGGAAACUUUGAGAUGGCCUUGCAAAGGGUAUGGUAAUAAGCUGACGGACAUGGUCCUAACCACGCAGCCAAGUCCUAAGUCAACAGAUCUUCUGUUGAUAUGGAUGCAGUUCACAGACUAAAUGUCGGUCGGGGAAGAUGUAUUCUUCUCAUAAGAUAUAGUCGGACCUCUCCUUAAUGGGAGCUAGCGGAUGAAGUGAUGCAACACUGGAGCCGCUGGGAACUAAUUUGUAUGCGAAAGUAUAUUGAUUAGUUUUGGAGUACUCGUGGUCG
How it was run: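 Colonies from six replicate transformations of E. coli BL21(DE3) were pooled and amplicon-sequenced on an Illumina HiSeq 2500. The library placed an intron with all eight P1ex-region nucleotides randomised inside the knt kanamycin-resistance gene on pET-22b(+), and cells grew overnight at 37°C or 30°C on LB agar with or without 25 μg/mL kanamycin (plus 100 μg/mL carbenicillin, 50 μM IPTG, 0.2% rhamnose). Fitness is the DiMSum error-weighted combination of wild-type-normalised replicate fold changes, kanamycin versus none.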

| Sequence | self-splicing fitness (ln) (30 °C) | self-splicing fitness (ln) (37 °C) |
| --- | --- | --- |
| GACGAGCAAUAUUACGCGCU | -3.04 ± 0.48 | -2.87 ± 0.31 |
| GACGAGCAAUAUUACGCUGU | -3.17 ± 0.3 | -2.9 ± 0.33 |
| GACGAGCAAUAUUACGGACA | -1.57 ± 0.43 | -0.484 ± 0.14 |
| GACGAGCAAUAUUACGGAUG | -2.45 ± 0.24 | -1.12 ± 0.16 |
| GACGAGCAAUAUUACGGCGG | -2.65 ± 0.33 | -2.42 ± 0.29 |
| GACGAGCAAUAUUACGGCUU | -1.43 ± 0.11 | -0.332 ± 0.14 |
| GACGAGCAAUAUUACGGGCU | -3.61 ± 0.2 | -2.21 ± 0.19 |
| GACGAGCAAUAUUACGGUUA | -1.65 ± 0.12 | -0.972 ± 0.1 |
| GACGAGCAAUAUUACGUUCG | -4.1 ± 0.24 | -2.24 ± 0.23 |
| GACUAGCAAUAUUACGAAAA | -2.41 ± 0.25 | -0.685 ± 0.15 |
| GACUAGCAAUAUUACGAAAC | -1.3 ± 0.12 | -0.114 ± 0.13 |
| GACUAGCAAUAUUACGAAUA | -2.54 ± 0.24 | -0.356 ± 0.21 |
| GACUAGCAAUAUUACGAGAC | -3.56 ± 0.43 | -1.76 ± 0.27 |
| GACUAGCAAUAUUACGAUUC | -0.598 ± 0.065 | -0.35 ± 0.072 |
| GACUAGCAAUAUUACGCAGC | -3.5 ± 0.23 | -2.2 ± 0.31 |
| GACUAGCAAUAUUACGCAUG | -1.24 ± 0.063 | -0.455 ± 0.075 |
| GACUAGCAAUAUUACGCCAC |  | -1.76 ± 0.41 |
| GACUAGCAAUAUUACGCCGU | -2.15 ± 0.11 | -0.995 ± 0.1 |
| GACUAGCAAUAUUACGCCUG | -0.826 ± 0.12 | -0.091 ± 0.14 |
| GACUAGCAAUAUUACGCGUC | -3.14 ± 0.16 | -2.78 ± 0.23 |
| GACUAGCAAUAUUACGCUAC | -1.81 ± 0.16 | -1.33 ± 0.2 |
| GACUAGCAAUAUUACGCUCG | -1.01 ± 0.14 | -0.0622 ± 0.19 |
| GACUAGCAAUAUUACGCUCU | -1.87 ± 0.12 | -0.12 ± 0.14 |
| GACUAGCAAUAUUACGGCCA | -0.241 ± 0.16 | -0.327 ± 0.26 |

| Sequence | self-splicing fitness (ln) (30 °C) | self-splicing fitness (ln) (37 °C) |
| --- | --- | --- |
| GACUAGCAAUAUUACGGCCG | -0.632 ± 0.13 | -0.578 ± 0.16 |
| GACUAGCAAUAUUACGGGUA | -0.752 ± 0.076 | -0.669 ± 0.078 |
| GACUAGCAAUAUUACGGUCA | -1.13 ± 0.27 | -1.36 ± 0.26 |
| GACUAGCAAUAUUACGGUUC | -3.18 ± 0.17 | -2.7 ± 0.32 |
| GACUAGCAAUAUUACGGUUG | -1.25 ± 0.072 | -0.449 ± 0.092 |
| GACUAGCAAUAUUACGUACC | -1.65 ± 0.15 | -0.961 ± 0.14 |
| GACUAGCAAUAUUACGUACG | -0.653 ± 0.066 | -0.585 ± 0.098 |
| GACUAGCAAUAUUACGUAGA | -0.815 ± 0.077 | -1.17 ± 0.097 |
| GACUAGCAAUAUUACGUAUG | -1.82 ± 0.068 | -1.33 ± 0.091 |
| GACUAGCAAUAUUACGUCUG | -3.86 ± 0.25 | -1.57 ± 0.23 |
| GACUAGCAAUAUUACGUUAA | -2.16 ± 0.12 | -0.716 ± 0.11 |
| GACUAGCAAUAUUACGUUAU | -2.4 ± 0.098 | -1.28 ± 0.11 |
| GACUAGCAAUAUUACGUUCG | -3.18 ± 0.22 | -0.787 ± 0.13 |
| GACUAGCAAUAUUACGUUUG | -2.63 ± 0.13 | -2.46 ± 0.2 |
| GAGAAGCAAUAUUACGAACU | -0.774 ± 0.085 | -0.288 ± 0.092 |
| GAGAAGCAAUAUUACGAAUA | -1.88 ± 0.25 | -0.917 ± 0.2 |
| GAGAAGCAAUAUUACGACCU | 0.392 ± 0.1 | -0.128 ± 0.096 |
| GAGAAGCAAUAUUACGAUCU | -1.66 ± 0.097 | -0.515 ± 0.095 |
| GAGAAGCAAUAUUACGAUGA | -1.04 ± 0.12 | -0.334 ± 0.11 |
| GAGAAGCAAUAUUACGAUUA | -0.739 ± 0.099 | 0.245 ± 0.081 |
| GAGAAGCAAUAUUACGCAAA | -3.07 ± 0.14 | -1.8 ± 0.15 |
| GAGAAGCAAUAUUACGCCGU | -2.18 ± 0.21 | -1.89 ± 0.21 |
| GAGAAGCAAUAUUACGCGCC | -1.88 ± 0.33 | -0.596 ± 0.23 |
